From article PMC12687561 (2025)

T1: HHV-6B Putative OX-2 membrane glycoprotein homolog (U85) peptide on HLA-DRA*01:01 / HLA-DRB1*03:01 (human)
T1 peptide: KINNLDVDSKLYFHIKH

T2: HHV-6B Large structural phosphoprotein (U11) peptide on HLA-DRA*01:01 / HLA-DRB1*03:01 (human)
T2 peptide: SLPSISIDTKRPSADL

B1: U85.1 (TCR)
alpha TRAV13-1 TRAJ29 CDR3: CAASNSGNTPLVF
beta TRBV20-1 TRBJ1-6 CDR3: CGNRVGNSPLHF
B2: U85.2 (TCR)
alpha TRAV13-1 TRAJ29 CDR3: CAATNSGNTPLVF
beta TRBV20-1 TRBJ1-5 CDR3: CSARRGGGPQHF
B3: U11.1 (TCR)
alpha TRAV12-1 TRAJ49 CDR3: CVVNIFTGNQFYF
beta TRBV19 TRBJ1-4 CDR3: CASSFRGGEKLFF

Assays:
[1] = biological target: T1, HHV-6B Putative OX-2 membrane …; assay: multimer staining
[2] = biological target: T2, HHV-6B Large structural phosphoprotein …; assay: multimer staining

Binder | binding result [1] | binding result [2]
B1 | recognises | 
B2 | recognises | 
B3 |  | recognises
